Experimental data taken from patent US20120263732A1, “CD40 ANTIBODY FORMULATION AND METHODS” (PFIZER INC., priority 2003, published 2012).

Columns and labels:
[1] = tested on: lymph node cells obtained from cancer patients; test: Proliferation of cancer patients' lymph node cells stimulated with autologous tumor cells (3H-thymidine); format: cell-based, human; conditions: antibody 1 μg/mL (6.7 nM); 3H-thymidine 96 hours later
Text: (§1) Effects of a human anti-CD40 antibody (21.4.1) on lymph node cells obtained from cancer patients stimulated with autologous tumor cells was examined.
(§2) Lymph node cells and tumors were collected from patients with renal cell carcinoma, non-small cell lung cancer, transitional cell carcinoma of the bladder, colon cancer, prostate cancer, and head and neck cancer. The lymph node cells were placed into culture together with irradiated collagenase treated tumors (recovered from the same patient) in the presence or absence of 21.4.1 (1 μg/mL; 6.7 nM). Proliferation was assessed using ^3H-thymidine 96 hours later. The number of INFγ producing cells was assessed by ELISPOT, following restimulation.

[2] = tested on: lymph node cells obtained from cancer patients; test: IFNγ producing cells by ELISPOT in lymph node cell cultures stimulated with tumor antigen; format: cell-based, human; conditions: antibody 1 μg/mL (6.7 nM); ELISPOT following restimulation
Text: as §1, §2

[3] = tested on: CD40 receptors on cynomolgus leukocytes; test: 125I-21.4.1 binding to CD40 receptors on cynomolgus leukocytes; conditions: 500-fold excess unlabeled 21.4.1; total % specific binding minus % binding to FcR
Experimental: The binding of 21.4.1 to Fc receptors (FcR) on human or cynomolgus peripheral blood leukocytes was determined by using ^125I-21.4.1 and a human IgG1 control mAb. Human leukocytes from normal donors or cynomolgus leukocytes were isolated from whole blood using plasma gel and washed thoroughly to allow dissociation of receptor-bound serum immunoglobulins. Centrifugation through a sucrose cushion was used to separate cell-bound and free antibodies. Studies were performed at 4° C. in the presence of sodium azide to prevent receptor internalization.
21.4.1 was tested for specific binding to FcR by using excess unlabeled human IgG2 isotype matched antibody as a competitor. ^125I-21.4.1 specific binding to FcR on human leukocytes (n=5 donors) was −1.0±8.5%, and specific binding to FcR on cynomolgus leukocytes (n=4) was 15±13%. […] The specific binding of the IgG1 control antibody to FcR on human and cynomolgus leukocytes accounted for 56% and 51% of the total bound radioactivity, respectively.

cynomolgus B-cells = test: Pharmacodynamics: B-cell surface marker upregulation after IV dosing (flow cytometry); format: in vivo, cynomolgus monkeys
Experimental: A CD40 antibody (21.4.1) was administered intravenously at various doses (1 mg/kg n=4, 3 mg/kg n=4, 5 mg/kg n=2 and 10 mg/kg n=2) to cynomolgus monkeys. Heparinized blood was drawn from the monkeys at various time points pre- and postdose. The blood was aliquoted and stained. Data were acquired using a Becton Dickinson FACSCalibur and analyzed with CellQuest software. Results were calculated as fold increases in median fluorescence intensity as compared to pre-dose values.

[4] = tested on: CD40(−) colon carcinoma, Lovo; test: CD40(−) Lovo colon carcinoma growth in SCID-beige mice; format: in vivo, human tumor in SCID-beige mice; conditions: in the absence of immune cells
Experimental: The effects of a CD40 antibody (21.4.1) on the growth of CD40(−) tumors (e.g., erythroleukemia and colon carcinoma) were examined. In particular, K562 tumors were chosen to assess the efficacy of 21.4.1 against a CD40(−) low immunogenic (class I and II negative) tumor.
SCID-beige mice were injected SC with the CD40(−) erythroleukemic tumor, K562 (ATCC CCL-243) alone or in the presence of human peripheral blood T cells and DCs. Animals received a single IP injection of 21.4.1 either at the time of tumor injection or 5 days later using various dose levels.
The amount of 21.4.1 to cause a 50% inhibition of tumor growth was 0.005 mg/kg corresponding to a Cmax serum concentration of 0.05 μg/mL. […] The results were identical when 21.4.1 was administered on Day 0 or Day +5 relative to tumor challenge. The growth of these CD40(−) tumors was not inhibited by 21.4.1 in the absence of immune cells.

[5] = tested on: human breast tumor, BT 474; test: BT 474 breast tumor growth with human T cells and DC in SCID-beige mice; format: in vivo
Text: SCID-beige mice were challenged with the human breast tumor, BT 474 (ATCC HTB-20), SC, together with human peripheral blood T cells and DC. Animals received a single dose of 21.4.1 (IP) at the time of tumor injection.

B cell lymphoma Daudi = test: Mortality in systemic Daudi B cell lymphoma model; format: in vivo, human tumor in SCID-beige mice; conditions: Daudi IV; single IP injection; monitored for 58 days
Experimental: The ability of an anti-CD40 antibody according to the invention (21.4.1) to delay mortality in a CD40(+) systemic tumor model using a B cell lymphoma was assessed.
SCID-beige mice were injected IV with the B cell lymphoma Daudi (ATCC CCL-213). 21.4.1 was administered as a single injection (IP) at the time of tumor injection. Mortality was monitored for 58 days.

[6] = Multiple-dose IV pharmacokinetics; format: in vivo, cynomolgus monkeys
Experimental: In a multiple-dose study, 21.4.1 was administered intravenously to cynomolgus monkeys (2/sex/dose) at doses of 0.3, 1.0, and 10 mg/kg on Days 1, 3, 5, 7, and 9 for 5 total doses. Blood was collected on Days 1 and 9 before dosing and 0.5, 6, and 24 hours after dosing and before dosing and 0.5 hour after dosing on Day 5 to measure serum drug concentrations. Systemic exposure to 21.4.1, as assessed by mean Cmax and mean AUG(0-24), increased with increasing dose from 0.3 to 10 mg/kg on both Day 1 and Day 9 (Table 2). Similar exposures (mean Cmax and mean AUC) were observed on Days 1 and 9 in the 0.3 and 1 mg/kg dose groups. […] Gender-related differences in exposure were not observed.

[7] = mouse, in vivo
[8] = Serum pharmacokinetics after one injection in SCID-beige mice
[9] = 0.3 mg/kg IV every other day, Day 1
[10] = 0.3 mg/kg IV every other day, Day 9
[11] = 1.0 mg/kg IV every other day, Day 1
[12] = 1.0 mg/kg IV every other day, Day 9
[13] = 10 mg/kg IV every other day, Day 1
[14] = 10 mg/kg IV every other day, Day 9

Question: With “21.4.1: human agonist anti-CD40 antibody; amino acid sequences SEQ ID NOs:5-8; hybridoma deposit PTA-3605” as the substance, how does the “proliferation of lymph node cells in response to tumor antigen, enhancement” value [1] read?
Answer: 3-4 fold

Question: What about the “number of IFNγ+ positive T cells” value [2] of the same substance?
Answer: enhanced

Question: And the “specific binding to CD40 receptors on cynomolgus leukocytes” value [3]?
Answer: 67%

Question: And the “CD23 expression on B-cells, increase vs pre-dose” value (cynomolgus B-cells; 24 hours after dosing, 3 mg/kg and 10 mg/kg IV)?
Answer: ≥ 20 fold

Question: And the “dose producing a saturating pharmacodynamic response in cynomolgus B-cells” value (cynomolgus B-cells; IV, MHC Class II and CD23 on CD20+ cells)?
Answer: 1 mg/kg

Question: What about the “CD71 (transferrin receptor) level” value (cynomolgus B-cells; after IV dosing) of the same substance?
Answer: moderate upregulation

Question: What about the CD80 expression (cynomolgus B-cells; after IV dosing) of the same substance?
Answer: did not change significantly

Question: What about the “CD86 costimulatory molecule level” value (cynomolgus B-cells; after IV dosing) of the same substance?
Answer: moderate upregulation

Question: What about the “upregulation of both surface markers (MHC Class II, CD23) persisted, increase” value (cynomolgus B-cells; while 21.4.1 levels remained above 1 μg/ml) of the same substance?
Answer: ≥ 2 fold

Question: What about the “growth of Lovo tumor” value [4] of the same substance?
Answer: not inhibited

Question: What about the “amount necessary to cause a 50% reduction in tumor growth” value ([5]; BT 474 with human T cells and DC, single IP dose at tumor injection, Day 53) of the same substance?
Answer: 0.005 mg/kg

Question: And the “growth of BT 474 cells” value ([5]; in the presence of immune cells, single injection)?
Answer: prevented the growth

Question: What about the “mortality induced by systemically administered tumor cell line” value (B cell lymphoma Daudi) of the same substance?
Answer: prevented mortality

Question: What about the “AUC(0-24)” value [6, 9] of the same substance?
Answer: 47.7 ± 15.4 µg·h/mL

Question: And the Cmax [6, 9]?
Answer: 4670 ± 1710 ng/mL

Question: What about the Tmax [6, 9] of the same substance?
Answer: 1.9 ± 2.8 h

Question: And the “AUC(0-24)” value [6, 10]?
Answer: 55.6 ± 47.1 µg·h/mL

Question: And the Cmax [6, 10]?
Answer: 7400 ± 2900 ng/mL

Question: And the Tmax [6, 10]?
Answer: 0.5 ± 0.0 h

Question: And the “AUC(0-24)” value [6, 11]?
Answer: 387 ± 59 µg·h/mL

Question: What about the Cmax [6, 11] of the same substance?
Answer: 26700 ± 5100 ng/mL

Question: And the Tmax [6, 11]?
Answer: 0.5 ± 0.0 h

Question: And the “AUC(0-24)” value [6, 12]?
Answer: 219 ± 151 µg·h/mL

Question: What about the Cmax [6, 12] of the same substance?
Answer: 12300 ± 9100 ng/mL

Question: What about the Tmax [6, 12] of the same substance?
Answer: 1.9 ± 2.8 h

Question: What about the “AUC(0-24)” value [6, 13] of the same substance?
Answer: 4130 ± 600 µg·h/mL

Question: And the Cmax [6, 13]?
Answer: 226000 ± 29000 ng/mL

Question: What about the Tmax [6, 13] of the same substance?
Answer: 1.9 ± 2.8 h

Question: And the “AUC(0-24)” value [6, 14]?
Answer: 11400 ± 2100 µg·h/mL

Question: What about the Cmax [6, 14] of the same substance?
Answer: 577000 ± 163000 ng/mL

Question: And the Tmax [6, 14]?
Answer: 3.3 ± 3.2 h

Question: And the “increase of mean AUG(0-24) from Day 1 to Day 9” value ([6]; 10 mg/kg dose group)?
Answer: 2.8 fold

Question: And the “increase of mean Cmax from Day 1 to Day 9” value ([6]; 10 mg/kg dose group)?
Answer: 2.6 fold

Question: And the T1/2 [7]?
Answer: > 720 h

Question: And the Cmax serum concentration ([8]; corresponding to 0.001 mg/kg single IP)?
Answer: 10 ng/mL

Question: What about the Cmax serum concentration ([8]; corresponding to 0.005 mg/kg single IP) of the same substance?
Answer: 50 ng/mL

Question: And the Cmax serum concentration ([8]; corresponding to 0.02 mg/kg single IP)?
Answer: 200 ng/mL
